B1: Uncharacterized protein YpfA (Bacillus subtilis), P38491 (parent)
chain: MIEIGENVLLEYIEENELKKAKSKAVSIENNELLIAYPVDVVTGRTVILHNDMEVTVEFVGKDEVPYRFISRIKGKVKDKLQMICLEMPPREKMKRIQRRQYVRTDAVLDVQIQPGNEEEIRTLSYNISAGGIAVVLADGLSFQSGESLRLIIRLPEEEHTRQIETEAVVRRIFNDPKSEKRKMTLEYSEIAAGDQQALLQYCIRRQLNKRRKARME
partner: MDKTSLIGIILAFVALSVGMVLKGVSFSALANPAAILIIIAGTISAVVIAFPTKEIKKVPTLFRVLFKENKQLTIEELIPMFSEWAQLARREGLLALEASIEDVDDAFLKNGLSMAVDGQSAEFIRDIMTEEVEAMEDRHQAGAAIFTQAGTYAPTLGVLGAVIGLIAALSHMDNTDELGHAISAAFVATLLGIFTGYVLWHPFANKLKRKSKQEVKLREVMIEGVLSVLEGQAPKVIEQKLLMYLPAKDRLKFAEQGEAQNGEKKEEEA

In the assay the parent is B1. As to conditions: with mota_bacsu motA.
Regarding N127A, the “effect of a mutation on the interaction” value is on record as “disrupting interaction”.

Turning to G132A, the “effect of a mutation on the interaction” value was “disrupting interaction”.

Consider R104D, for which the “effect of a mutation on the interaction” value is “disrupting interaction”.

Regarding R100F, the “effect of a mutation on the interaction” value is given as “disrupting interaction”.

(Values after IntAct's records for PubMed 22821967.)
